Measurements as given in the domain aggregation screens of Martell et al. (2025).

Assay: soluble fraction after stress (log2 fold change); higher = more stays soluble; pooled small domains, quantitative proteomics
Settings: stress: 75 degC
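Also: 20 min heating vs room temperature control held 20 min.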

Sequence | soluble fraction (log2)
HMLDEIAGQKVRVLEEINNSEGTGKVMYRGVEWMARSVDDAVMAKDSIVTVQSISGVKLMVT | -0.184
HMLDEKAVRQYLLNTLENSEIKMDRQAIDLFLRLTDLDLSKMMRELQKILLYGQEQEVITVKEIEQ | -0.779
HMLDGFEVGMTVMKKSGTEIGFTGWPSFADKDELPIIERIDTSDSTLLLKFKDMSWWIKASLVEPS | -3.55
HMLDLPEISARIMEVFETKDRATISELSKLTGTNINTIKKHLSSLVENNYLIKHGKTRGAWYTKST | -0.126
HMLDLVSIGKRIKAERQKNGLTQEALAERIEVSAHYVYELERGLKAMSVPILLRMSEVLHTSTDYLLF | -3.34
HMLDNHPQSKKIRALWLEMAAAGVVRDSSEQALALWVKRETGISALRWLSNEQASSVIEKLKKWQRRAAG | -1.47
HMLDPKVFVGKAGINEGIAKLLLQAFDKADLVKVRFTAERDVMETQMQELARLTGSEVIGNVGRTATF | -0.0412
HMLEAMDSDEAAKVIEQIVNERADFVRSKGMGAIGPLMGPVMGALRGKVDGKQANELLTAAIKKLL | 0.334
HMLEASVYTAEKSGDRLDAFLAEQAGITRSYAQKLIEGGQVTLGGVVPKKNYKLSAGEQVELILPEN | 0.0466
HMLEKVLDNHIHKLRLQHKISQQELADAIGVSRKTISTVETGRFTPSVVIALKIAAHFSVSVEQVFTL | -1.14
HMLEPEVLDLIGQVKSVHHFSVTQSHQLEKLVRHAHTLGFEIAELKSLLASSPNAKSLLSSLDQKLEPLRM | -1.86
HMLEQEQFESKLLKAINNINETQRIAFLMHRIDGKKYAEIASELNISVKAVEKRIHLALIELKKEIENF | -0.747
HMLEQISDINILSGYAKEVIAENPKTVSDYLSGKAAAFQALVGQVMKKTGGRGNPVIIQEILKRLIHKK | -0.0597
HMLERKPVLVASRDLPALAVIGKDDLSVELLRTAPVGSYDRPEALLGKRVWVAVPAGSILSAATLEP | -0.366
HMLERPLKLKSHYVSTIYEKVAVQYSEGEEKKSVMGTLIEVNQDTIVLDDRGTIIEIPFKSITRAKTVF | -3.6
HMLETLVYPNPTTDKILLSSPVDYHLFSLKGELVLEGRGSSIEVSQLSKGVYFLNTKTQTFKIIK | -0.62
HMLGARSLNEAVARNLPQILAKYQLIHIAGKNGFNPELQGRGYVQYEYVDTELKDLMALADIVVSR | -1.52
HMLGERIKQIRKQKKMTQTDVATGIITKSMLSMIENGKATPSLPALQAIARRLQVTVEELML | -2.55
HMLGFELVGIRGNNPESTIIILERDDYRLVEQGQNINSSVIFSHIDGSRAYFFDGQTYTFLDI | -2.78
HMLGITEGSLVRVIRSPNFGKIGTVAELPAELRMMESETMVRIAIVEIEGTNFEIPRSNLEVLET | -1.6
HMLGKEVVRAYNISYAIDDKGSLQGDLTAALTGLIPLSKPPVLDQRNRSLYVTATPEQHKDVAALLAKL | -0.238
HMLGSGSKEQQLVILNNILERQVQAFNLQGGQEYPMVTLKNFYNTLSKMIENAGLKNVENYFVNPDVGKQM | -0.392
HMLHMKAALGELMSIPGMRSELAGTLFDRGYTSLAQLRAATLDDLERVNGLERADARRIHDFLRKS | -0.251
HMLHQSLVVNAASGRVTVSLDIVPDEDNPYAVLRATDDSDEPLAQVRVAPSFKLNRASALAWIESQFARP | -2.34
HMLHSEDATVVRQAIPLLERHVDAATVAVARRNLAQLEQFGRYPRRNQALGRISNPAENAYLRAER | 0.0695
HMLIDQYPYSIIYRLIPHGRSNAVPAAQIVGLTKLDERSIRIYVEAMRREGHIIASSSKGYYFPASIEE | -3.2

Sequence | soluble fraction (log2)
HMLIGLNETESLVLDALIANPMRIDQVSAMLKKDVATTLKFLGGLSVRGLVETLFGGRFAPTKIALHARS | 0.0549
HMLIIMNSDATKEQVDHVTSRVREAGFKDHIMPGAGKVAIGVTGTGDYDQTKLHLEILPGVFKIMRITK | -0.816
HMLIPADETEAKVLSVLSREPLHVDEIRNQAGLPIEKISATLALMELKGMVRQVGGMNYVSV | -0.044
HMLKDKLSDKDFDFYKNKIQIQLQGNPTELKELVRRFSSTEEQQILKTIDYMLDNGFLRIDEDNMIYWK | -0.0419
HMLKDQSIAQLEKNLDDLKGLMRKMFGSSDVPKITKMISDIESSLANFNQSKANKLIVQTTNYISSKL | -0.664
HMLKEDSAYELGLRIFDQALNDYGTSFIDLKEDEYKKVLSIYGYSNPRQLIINIGLGNVIPHLLARDITE | -1.34
HMLKEGIKEKINQLQVYADKNDNIIWYDRVVDILSDKDDSVTDEMIEAAIRTLEEAGISVERKQ | 0.0727
HMLKEGQYSPNHFHWHKMEDIINRGGGTLLIRVYNSLPDEEIDRESDVTVHMDGVTRTVPAGTQLRLE | -0.124
HMLKETGVITASVLNVREDIGTSSNIVAQLKKGMEVNILESRAIAGSETWYRIDAGSIKGWIFGDYI | -3.37
HMLKFGLSQRELQILALLPTDEPLSILAKSLFISESTLKTHLTHIYRKLGVKNRLQAINVARKAGLLK | -1.59
HMLKHSKQRDAIEQFLATRYDHPTAETVYMNLREEYPKLSLATVYRNLSLLAELGNIQKIPTGNGPDRFDG | -0.343
HMLKIAENIYQRRKEKNITQEELADFMMVTKASVSKWETGQSYPDILLLPKLATFFNVTVDELIGYEPQ | -2.72
HMLKIVRSREEVESRLYTIYGNVKGRRLYNFYLSLIIDGLDIVKARTSKNVYYTNIRNLKNAGIDFSQKIN | -2.28
HMLKPKDLHLGDSVRVLSLNLKGTVSSLPDTKGFLFVQMGIMRSKLHISDLQLIDEPVITAP | -2.23
HMLLFSVADIVKRSKRILSFKTDAELAAYFGVSRSTLSNWIARNSIDFPLLLSKMKDVDYTWLILGKGTPG | -3.97
HMLLLHINQMGVTEFSQLELNHVRSWLANLQIKGAARSSITRRVVSVRAFTYWGAKNGWLASDIGRDLVAP | -0.459
HMLLRVGGLVKDGSVRTDNDLGIKFIIEDNLAEVSVLYNGILPDLFREGQGVIAEGKFIDNIFIANEIVA | -0.682
HMLLSHTAQREGELLTFLRGELALSSGLVKRLKWQNAFFLDGAPVHTNARVKPGQEITVRIEE | -1.59
HMLLTEETLPQLKQIVDEFPYFQIARMLYLKNLAVLNDIRFSVELKKMSIYVPDRRKLFTLIEGE | 0.044
HMLLTLPEDIITMVRQGTLSAGHARVLAGLESDEMKMTLARQTITNEWSVRQLENAVALMRKS | -0.906
HMLLTPLEETRLVIEEIVIPQKLTIDLLPRSSAIRKLQHELITHYQLRGTSVGNEPNRRLRIYP | -0.121
HMLMNADVLVKYQEDHWIVISEKASQASDTFDKKEQAVERAKEIAKNKNSSVKVYKQDGTLQDTFDYS | 0.351
HMLMSDEENAEFTKLYRQLVFKLHPDLNPNQTKDEENLWHKVQMAYKGGDLEEMRSLAIILDAQ | 0.0885
HMLMTGSLQTKHGKYYVVVRIPDGLGNTKAKWINTGIPTDGNNKRKAQQRRIEILTELEENKD | -2.47
HMLMYAQDEKEEASNNIPYRLLHMSFTKEQKAELQRAMDVRVPKDIILSYFYPDTPVARMMEIRRQYESA | -0.814
HMLNDKLQTLFSLFPAVDKDLKKKGVTRQILWEQYKRNHPDGVGRSQFNYYYAQWKDQVNPT | -1.02

Sequence | soluble fraction (log2)
HMLNDMYAVMEIRGQGGELIAKLINQDGSPFYVKKGTTLQSGHVIDEITTTYVRAEKAGAKDYLYF | -0.939
HMLNDTGAIRAAVEEVLAANEKSVNEYKGGKTQAFQYLIGQSMRALRGKAPAQEVTKLLKELLG | -0.564
HMLNQIGVSQKEFDQIHTAIKIALKTSSLTPTGITEKLPKFPPEKTADILRWMADNKEVLLNSEEKYELKT | -0.297
HMLPAGAAAPLEDGSAPEGYTVKGNADSGLYHEPDGRWYDATVAEFWFKTAADAEAAGFRKAGS | 0.149
HMLPDGEAFVKVNTSLNIRTGPWGQIVGWFHNNDKVKIIGRDGDWYKISHNGQTRYIHSRYVSSSR | -1.2
HMLPDHAPITMRQLAMLHVAKNKLDLTDEDYRSLLLLYGGVESSKQLNQEGLRRVLDRFKELGFEP | -0.45
HMLPDLLNGRVIPSPEKVIRARLNRGVWELLVQWVGRAPSDATWENLLEFKSAYPSVQLEDALF | -1.97
HMLPDLQKAIDTFLYEVDSRINTSFEELIDKLNSKEEAVAFFLALLEAVRWGFIKAEQESNSINIKK | -0.898
HMLPDSQLMKEATAWFMRQAADDFSGAERRRLDAWRAQSPAHARAYHQVQALWNAPELQQAAAR | -0.113
HMLPEGIENGDVLTRTDALDYRKWLVTGNQKRIFASTASFYGENFNYSEVKAVSDRVLDAIPDGEPV | -0.0413
HMLPFGHTRLEDGTIQEIPEQIALARKVAEMYKAGFPVMQISIKTEGLLTPRQIYGLMNHWGVKR | -1.3
HMLPIKLDLEIGENVRVVSGPLENFVGSVVSFDTDQQKVKLVVEMFGRKTPVELDFIEVQKLR | -2.24
HMLPIMDRLITAGISINTAKKWVDKFGDKRIKQNLAYSLAKQKEGKVKTNFVGYLAKAIEEDWGSGWE | -1.5
HMLPKAERREQLMAVARSVFAEQGYHTTSMEIIAETAGVSKPLLYQHFPSKLDLYLALLDAGID | -1.8
HMLPKILVMDGKVNKNALTTLGKDEEWVKKVLRNHNIHSIKDVLLALYDTKGKFQYQLYDDYEK | -0.248
HMLPKNITNTIDHWIQKFPQGKQRSAIIAALHAVQHHNKGFLTNDLLNQVADYIDVPKMNVYEVATFYSM | 0.169
HMLPLIEVPAVTGKYLTKAKSALKDAGLDTGDIKRVEHEEHGENYVLKQDPPAGTKVPFGTTVSLTVVAP | 0.427
HMLPLLEYLDPFTGKKTYTYLNPDTQHPIFTYYSYQDDKTGRTAYSYIDPLTGKAVNSDEPPMDILYD | -0.676
HMLPPHMEVRAIMILDKRPMALMNIEGEGDGLIVSPGYRFGDGRGRVVSITQTKVVVLWAGTSMEL | -2.82
HMLPQYELIKQYLRHQIETGEWPIGYRTPSEPKLAEQFSVSRMTARRALQELADQGLLSRTAGSGTFVAKP | -0.921
HMLPVQGEEVAPGLYKFDFPFLADKRVWEKTINAFKAEHPELKVNYIYTGPDELNSKKKTHVLVYVFTES | -0.539
HMLPVYSITEAAERLDIPASTIKWYADRFASYISPSKGKGRKRFTPEDLATLQKIHELSQDHTTEEAEAML | -0.0974
HMLPYKGTVAVSLAVLHKAVGVGTADMLKAVGTLRQGTEVTVTGRNGPFAQLKNGLWMKESFLE | -1.07
HMLQADALADPVGWALRTLGFDLEAGTPERSAIQRSFRQSLIEAHPDHGGADDEAAQRIADITEARRILLA | -0.403
HMLQFTYPRLHTKKSWYVDFMSFDPGAGKMRRKKFMLDGIPKITDRRKRAAELIEVLTKQLRAGWSPWVNV | -3.85
